{
  "source": "paper PMC10878280",
  "about": "(Journal of Virology, 2024)",
  "binders": {"B1": {"name": "CD6 IgG (antibody, V domains shown)", "VH": "QVKLQESGGGLVQPKGSLKLSCAASGFTFNTYAMNWVRQAPGKGLEWVARIRSKSNNYATFYADSVKDRFTISRDDSQSMLYLQMHNLKTDDTAMYYCVRPSIYYYASGYLDVWGAGTTVTVSS", "VL": "QIVLSQSPAILSASPGEKVTMTCRTSSSVSYMHWYQQKPGSSPKPWIYATSNLASGVPFRFSGSGSGTSYSLTISRVEAEDAATYYCQQWNSNPPTFGGGTKLEIK", "notes": "not shown: ybbR, C-terminal, kept; copies: 2 + 2"}},
  "molecular_target": "neuraminidase (NA) of A/California/04/2009 (Influenza A virus A/California/04/2009 …, UniProt C3W5S3, strain)",
  "assay": "fluorescence imaging with FRAP of labelled antibody on transfected cells",
  "details": "one partner purified",
  "data": [
    {"binder": "B1", "values": [
      {"measurement": "binding result", "result": "binds"}
    ]}
  ]
}
